Results as given in patent publication US20160305952A1 (ROCHE SEQUENCING SOLUTIONS, published 2016).

How the values were obtained:
streptavidin [1] = molecular target: T1, streptavidin (UniProt P22629 37-163, limits assumed); experiment: SPR, Biacore X100, streptavidin on CM5 chip, peptide in solution
T1 construct: amine-coupled to a CM5 chip for SPR; also called SA
Text: (§1) A selection of streptavidin peptide binders listed in Table 15 were synthesized using standard column-based synthesis techniques by UW Biotechnology center (Madison, Wis.) or by Peptide2.0 (Chantilly, Va.) at 98-99% purity. Strep-tag II peptide NH2-[…]-COOH was purchased from IBA GmbH (Goettingen, Germany). Synthesized peptides were then characterized by Surface Plasmon Resonance (SPR) to identify binding characteristics including the association rate constant (kₛ), dissociation rate constant (kd), and equilibrium dissociation […] (kd/kₐ=KD). In one aspect, SPR experiments were performed by using Biacore X100 instrument (GE Healthcare). Preliminarily, 60 μl of 100 μg/ml streptavidin in 10 mM Na-acetate, pH5.0 was immobilized to flow cell 2 (Fc2) of a sensor chip CM5 (GE Healthcare) using Amine Coupling Kit (GE Healthcare) at 20° C. for 6 min. Peptide stock solutions were prepared at 5 or 10 mM concentration in water and diluted in HBS-EP+ (GE Healthcare) buffer before SPR experiments. Peptide binding was performed in a multiple kinetics mode using HBS-EP+ as a running buffer and 0.2 M NaCl, 10 mM NaOH or 10 mM HCl-glycine, […] as regeneration buffer. Binding kinetics parameters were calculated with Biacore X100 software.

streptavidin [2] = molecular target: T1, streptavidin; experiment: SPR, Biacore X100, streptavidin on CM5 chip, peptide in solution; second KD value printed for the same peptide
Text: as §1

streptavidin [3] = molecular target: T1, streptavidin; experiment: SPR
Text: as §1

T1 sequence (P22629 37-163 limits assumed): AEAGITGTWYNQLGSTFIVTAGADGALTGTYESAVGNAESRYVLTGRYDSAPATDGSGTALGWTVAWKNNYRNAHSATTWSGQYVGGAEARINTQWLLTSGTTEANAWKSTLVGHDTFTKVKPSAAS

| Binder | Kd (streptavidin [1]) [µM] | Kd (streptavidin [2]) [µM] | koff (streptavidin [1]) [s⁻¹] | kon (streptavidin [1]) [M⁻¹ s⁻¹] | fold change in KD as compared with the parent peptide … (streptavidin [3]) [fold] |
| --- | --- | --- | --- | --- | --- |
| H-EWVHPQFEQKAK-NH2 (free peptide) [NH2-EWVHPQFEQKAK-amide] | 5.68 | 5.87 | – | – | – |
| H-RDPAPAWAHGGG-NH2 (free peptide) [NH2-RDPAPAWAHGGG-amide] | 4.66 | – | 0.0696 | 14900 | ≥ 100 |
